Data taken from patent publication US20220275059A1 (HARBOUR ANTIBODIES, published 2022).
Several values for one entry are separate records, joined by “and”; a condition that tells them apart may be missing. Equal values may be shown once.

Legend:
[1] = molecular target: T1, MERS-CoV S S1 subunit (MERS-S1) (MERS-CoV EMC isolate, UniProt K9N5Q8 19-748); assay: see FIG. 29A
[2] = molecular target: T1, MERS-CoV S S1 subunit (MERS-S1); assay: MERS-S1 specific ELISA
[3] = molecular target: T2, MERS-S1^B domain (receptor binding domain) (MERS-CoV EMC isolate, UniProt K9N5Q8 358-588); assay: see FIGS. 5(A) and 29(A)
[4] = molecular target: T2, MERS-S1^B domain (receptor binding …); assay: see FIG. 5A
MERS-S1^A domain = molecular target: T3, MERS-S1^A domain (MERS-CoV EMC isolate, UniProt K9N5Q8 19-357); assay: ELISA on coated MERS-S1^A, OD450 [D]
T3 sequence: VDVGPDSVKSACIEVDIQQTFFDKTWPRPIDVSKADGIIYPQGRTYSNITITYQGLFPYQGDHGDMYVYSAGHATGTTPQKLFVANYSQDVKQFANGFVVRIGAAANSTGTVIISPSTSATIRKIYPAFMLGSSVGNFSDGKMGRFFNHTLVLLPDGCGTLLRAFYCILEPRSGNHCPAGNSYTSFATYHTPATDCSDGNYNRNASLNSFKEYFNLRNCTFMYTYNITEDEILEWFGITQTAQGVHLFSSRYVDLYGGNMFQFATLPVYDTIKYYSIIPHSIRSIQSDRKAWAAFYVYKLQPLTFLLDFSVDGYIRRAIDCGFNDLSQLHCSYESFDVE

[5] = molecular target: T2, MERS-S1^B domain (receptor binding …); assay: ELISA on coated MERS-S1^B, OD450 [D]
[6] = molecular target: T1, MERS-CoV S S1 subunit (MERS-S1); assay: ELISA on coated MERS-S1, OD450 [D]
[7] = molecular target: T4, NL63 coronavirus spike protein (HCoV-NL63, UniProt Q6Q1S2 16-1291); assay: ELISA on NL63 Secto
T4 sequence: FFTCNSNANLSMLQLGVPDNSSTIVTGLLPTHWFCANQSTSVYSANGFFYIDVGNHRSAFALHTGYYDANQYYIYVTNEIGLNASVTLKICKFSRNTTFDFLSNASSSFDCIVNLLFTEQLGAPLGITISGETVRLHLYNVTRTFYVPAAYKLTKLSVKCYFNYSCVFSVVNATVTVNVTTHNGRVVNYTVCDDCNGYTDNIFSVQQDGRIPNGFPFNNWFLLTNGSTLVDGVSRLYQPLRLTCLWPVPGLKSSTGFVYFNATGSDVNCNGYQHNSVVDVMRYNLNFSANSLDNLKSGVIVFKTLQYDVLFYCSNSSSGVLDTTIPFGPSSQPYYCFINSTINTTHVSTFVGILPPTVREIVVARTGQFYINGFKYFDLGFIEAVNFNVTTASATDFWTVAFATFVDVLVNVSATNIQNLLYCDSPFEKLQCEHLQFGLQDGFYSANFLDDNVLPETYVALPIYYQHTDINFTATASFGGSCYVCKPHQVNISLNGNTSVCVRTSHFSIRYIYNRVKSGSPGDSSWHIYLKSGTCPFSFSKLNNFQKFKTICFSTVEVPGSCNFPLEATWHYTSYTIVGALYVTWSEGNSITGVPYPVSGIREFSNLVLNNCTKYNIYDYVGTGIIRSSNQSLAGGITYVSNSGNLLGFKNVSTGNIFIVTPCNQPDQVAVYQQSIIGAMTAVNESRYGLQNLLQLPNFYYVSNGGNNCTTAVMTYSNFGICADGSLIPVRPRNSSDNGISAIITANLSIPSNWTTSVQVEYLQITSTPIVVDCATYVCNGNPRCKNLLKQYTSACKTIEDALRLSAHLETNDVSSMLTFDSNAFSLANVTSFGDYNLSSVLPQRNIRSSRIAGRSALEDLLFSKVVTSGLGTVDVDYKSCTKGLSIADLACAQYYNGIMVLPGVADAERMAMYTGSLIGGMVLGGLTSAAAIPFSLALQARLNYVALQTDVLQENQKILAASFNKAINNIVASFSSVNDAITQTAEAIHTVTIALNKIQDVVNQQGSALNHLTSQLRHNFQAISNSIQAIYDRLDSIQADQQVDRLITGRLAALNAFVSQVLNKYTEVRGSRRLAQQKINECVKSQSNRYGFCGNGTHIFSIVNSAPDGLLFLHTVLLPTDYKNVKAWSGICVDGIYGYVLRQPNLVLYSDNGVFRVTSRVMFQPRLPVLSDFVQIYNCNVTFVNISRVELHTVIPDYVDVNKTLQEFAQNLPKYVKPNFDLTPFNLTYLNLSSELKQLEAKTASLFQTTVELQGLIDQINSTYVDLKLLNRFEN

[8] = molecular target: T5, MERS-S on pseudotyped VSV particles (MERS-S carrying a 16-a.a. cytoplasmic tail truncation) (MERS-CoV, UniProt K9N5Q8 18-1337); assay: cell-based or functional assay
peptide 10 = assay: ELISA on coated overlapping MERS-S2 peptides, A450 [D00032 Fig. 14(B]
peptide 11 = assay: as above
[9] = molecular target: T5, MERS-S on pseudotyped VSV particles …; assay: cell-based or functional assay; remark: listed apart in the source
[10] = molecular target: MERS-S2 ectodomain (MERS-S2^ecto) (MERS-CoV EMC isolate, UniProt K9N5Q8 752-1262)

B1: 7.8h1 (antibody, V domains shown)
VH: QVQLVQSGAEVKKPGASVKVSCKASGYTFTSYDINWVRQATGQGLEWMGWMNPISGNTGYAQKFQGRVTMTRNTSRSTAYMELSSLRSEDTAVYYCARGQWLFDYWGQGTLVTVSS
VL: DIQMTQSPSTLSASIGDRVTITCRASQTISSWLAWYQQKPGKAPKLLIYKASSLESGVPSRFSGSGSGTEFTLTISSLQPDDFATYYCQQYNFYSYTFGQGTKLEIRR
binding result [1]: binds

B2: 5F1 heavy chain-only antibody (antibody, V domains shown)
VH: EVQLVESGGGLVQPGGSLRLSCAASGFTFSSYWMHWVRQAPGKGLVWVSRINSDGSSTSYADSVKGRFTISRDNAKNTLYLQMNSLRAEDTAVYYCGNPYFDYWGQGTLVTVSS
binding result [2]: binds

B3: 7.7a9 (antibody, V domains shown)
VH: EVQLLESGGGSVQPGGSLRLSCEASGFTFNTYPMSWVRQAPGKGLEWVSGISGSGDRTFYEDSVKGRFTISRDNSKNTLYLQMHSLRGEDTAVYYCAKDLGGEGYWGQGTLVTVSS
VL: QAVVTQESALTTSPGETVTLTCRSSTGAVTTSNYANWVQKKPDHLFTGLIGGTNNRAPGVPARFSGSLIGDKAALTITGAQTEDEAIYFCALWYSNHSVFGGGTKLTVLG
binding result [3]: binds

B4: 7.4f3 (antibody, V domains shown)
VH: EVQLLESGGGLVQPGGSLRLSCEDSGVTFSSNPMSWVRQGPGKGLEWVSGISGSGDRTFYEDSVKGRFTISRDNSKNTLYLQMNSLRAEDTAVYYCAKDLGGEGNWGQGTLVTVSS
VL: QAVVTQESALTTSPGETVTLTCRSSTGAVTISNYANWVQEKPDHSFTGLIGGTNNRAPGVPARFSGSLIGDKAALTITGAQTEDEAIYFCALWYNNQSVFGGGTKLTVLG
binding result [4]: binds

B5: 1.6c7 (antibody, V domains shown)
VH: QVQLQQSGPGLVKPSQTLSLTCAISGDSVSSDSAAWNWIRQSPSRGLEWLGRTYFRSKWNNHYAVSVKSRITINPDTSKNQFSLLLNPVTPEDTAVYYCARATLARGALDYWGQGTLVTVSS
VL: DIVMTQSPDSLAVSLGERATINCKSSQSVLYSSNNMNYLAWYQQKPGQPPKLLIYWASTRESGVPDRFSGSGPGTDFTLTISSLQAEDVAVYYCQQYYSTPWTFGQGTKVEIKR
binding result (MERS-S1^A domain): no binding (tested: about 5x10^5 ng/ml) | binding result [5]: no binding (tested: about 5x10^5 ng/ml) | binding result [6]: no binding (tested: about 5x10^5 ng/ml) | binding result [7]: no binding (tested: 25.00 (no unit printed)) | IC50, MERS-S pseudovirus (human IgG1) [8]: 2.45 nM | IC50, neutralization of MERS-S pseudovirus infectivity (1.6c7 antibody, H2L2) [8]: ~0.59 µg/mL | binding result (peptide 10): no binding | binding result (peptide 11): no binding | IC50, neutralisation of MERS-S VSV pseudovirus on Vero cells [9]: 0.367 µg/ml and 2.45 nM | EC50 (read off the curve) [10]: ~0.03 µg/mL
